Drawing on paper PMC3843118, “ABC transporter functions as a pacemaker for sequestration of plant glucosides in leaf beetles” (eLife, 2013), this text covers Km for 1 protein.

Substrate in this data set: OCc1ccccc1O[C@@H]1O[C@H](CO)[C@@H](O)[C@H](O)[C@H]1O
Briefly: efflux of injected substrate from oocytes, HPLC-MS. The format is cell-based, Chrysomela populi. The conditions noted are these: Xenopus oocytes expressing CpMRP vs water-injected control, modified Barth's medium pH 7.4, room temperature, oocyte volume assumed 1 µl.

For orientation: Km means the substrate concentration at which the rate is half of its maximum.

B1: CpMRP (Chrysomela populi) (protein)
chain: MDNGYQLKYDNPRDKANFISKLFFGWMIGLVRKATRTGLEVGDLYKTREADKSKKLADLLEKNWTKELKRAKLKGTKPSLSRALLKTFTMEYMGWGLLFFIQFVVLRSILPLILSYLISLFQESDMDDMVDRTNAMYICSGILITITAISIFFLHHTNKGLTVVGMKARIAVSSLIYRKITRLNQTSLGETAAGQVVNILSNDVNRFDLVVLSLHCLWTLPIQVALLFYLLWRQVQISCLAGILSMMIICIPGQGYVGKLTGVLRFRVAKKTDTRVKLMNEVISGIQVIKMYAWEKSFEKLIKLMRADEIKDLTSTSYLRGLLLSCVVFIERLTMFLTVTCYVLLGNVITADKVFSMAQFFNILQYGIAILYPMAVSYGAETLISIKRLQDFLLLEERKTPSIETAEDNGIQLSDVSASWTADTRTLRDITLNLPPGTLCAVVGPVGAGKSSLLQLLLGELPLSSGTMSLAGTISYSSQEPWLFQSSVRKNVLFGEPYQSSWYKQVVKVCALEKDFDQFPQRDQTIVGERGVSLSGGQRARINLARAIYRKTDVYLMDDPLSAVDTHVGRHLFDECIYRHLRGKTRILATHQLQYLKNADVIVVMNEGRIEAQGSFEELSDSELDFTKLLVSADETKGESKKLSLVEEPKIDYIKRLSVRSIMSTQSEFIEMMEYGDTEELGVDGNAHPFKDYCKAPRNVCLLVVVIISLILAQAVCSGADYWSSFWTRQEEIRHSTRARPVSDSSEVIQLVPLGNQTISLDGNKYTNENRDFSFDTFFDQVFLDNRIYKLLKTNYSMGVYGFLIIAAIVFTIGRSVLFCKLTMQASTNLHSDMFHTLLKAPMRFFDTNPSGRVLNRFSKDMGAVDEILPRTLLESIQIMLVMCGILVNIAVANPYMLVAMVVMGVCFYFLSKWYVTTASNVKHLEGFTKSPVFSHVNSTLNGITTIRAFRAEEVLCEEFDDQQDVHTSSWYLTLSCIASFGLWMDIVCLLFLACVTFSFVLMHSTSSVNGSLVGLAISQCLILTGMLQHGMRQTSEVINQLTSVERIRQYTKIDTEGPFETPIEKKPLKGWPNRGRLEFRNLVLRYVAEDDPVLRNLTFTVLPGEKVGIVGRTGAGKSSLISALFRLAPTSGSILIDGVDSKVLGLTDLRMKISIIPQEPVLFSATMRYNLDPFDEFDDRSLWDALEQVELKDAVESLDIMVTEGGNNFSLGQRQLICLARAILRNNNILVLDEATANVDQRTDSFIQKTIRRNFEDCTVLTIAHRLNTIMDSDKVLVMHFGEMVEYDHPHILLQLPEGHFHKMVLETGPAIYAQLKDVAEKAYHKNSRL
notes: cRNA expressed in Xenopus laevis oocytes
With B1, the Michaelis-Menten constant (Km) was 5.8 mM.
